Measured values: paper PMC5703901, “Rational design of cholesterol oxidase for efficient bioresolution of cholestane skeleton substrates” (Scientific Reports, 2017)

B1: PsChO (Pimelobacter simplex; V115C) (protein)
chain: VLVIGTGYGGAVAALRLAQAGVQVEMIEMGMSWDTPGSDGKIFAKVTSPDKRAYWLRTKTKAPCSNFFGFPIDATIPKYTGILDAEEFAGITVYQGRGVGGGSLVNGGMAVTPKQSRFSSILPSVDAAEMYATYYPRANAGLGVGSIDPAWFETAECYKYARVGRKHAQRSGFAWTFVPDVYDWNYMKAEQAGTVTRSALDGQVMYGNDHGKKSLVQTYLAQALATGRVNVSTLHQVTAVAPRSGGGYTVSIDQLDTSGNVVGTKSVTAGKVFFAAGSVGTSKLLTKLKATGSLPALNNEIGKGWGDNGNVMCGRANHMWDPTGSLQSTIPCSGIDNWDAGGAFAEVAPLPTGIETYASLYLSITNTTRRAEFSWNAAANKVDLSWQTAWKQDSINMAKTIFDKINSKEGTIYRTDLFGAYKVWQDGLTYHPLGGAVLNKATDNYGRLHGYNGLYVIDGALIPGNTTVNPFVTITALAERNIDNILANDI
notes: wild-type gene in pET28a(+), E. coli BL21(DE3), His6-tagged, Ni-NTA purified; noncovalent FAD type; catalytic H431, E346, N469
B2: PsChO (Pimelobacter simplex) (protein)
chain: VLVIGTGYGGAVAALRLAQAGVQVEMIEMGMSWDTPGSDGKIFAKVTSPDKRAYWLRTKTKAPVSNFFGFPIDATIPKYTGILDAEEFAGITVYQGRGVGGGSLVNGGMAVTPKQSRFSSILPSVDAAEMYATYYPRANAGLGVGSIDPAWFETAECYKYARVGRKHAQRSGFAWTFVPDVYDWNYMKAEQAGTVTRSALDGQVMYGNDHGKKSLVQTYLAQALATGRVNVSTLHQVTAVAPRSGGGYTVSIDQLDTSGNVVGTKSVTAGKVFFAAGSVGTSKLLTKLKATGSLPALNNEIGKGWGDNGNVMCGRANHMWDPTGSLQSTIPCSGIDNWDAGGAFAEVAPLPTGIETYASLYLSITNTTRRAEFSWNAAANKVDLSWQTAWKQDSINMAKTIFDKINSKEGTIYRTDLFGAYKVWQDGLTYHPLGGAVLNKATDNYGRLHGYNGLYVIDGALIPGNTTVNPFVTITALAERNIDNILANDI
notes: as for B1
B3: PsChO (Pimelobacter simplex; F121V) (protein)
chain: VLVIGTGYGGAVAALRLAQAGVQVEMIEMGMSWDTPGSDGKIFAKVTSPDKRAYWLRTKTKAPVSNFFGVPIDATIPKYTGILDAEEFAGITVYQGRGVGGGSLVNGGMAVTPKQSRFSSILPSVDAAEMYATYYPRANAGLGVGSIDPAWFETAECYKYARVGRKHAQRSGFAWTFVPDVYDWNYMKAEQAGTVTRSALDGQVMYGNDHGKKSLVQTYLAQALATGRVNVSTLHQVTAVAPRSGGGYTVSIDQLDTSGNVVGTKSVTAGKVFFAAGSVGTSKLLTKLKATGSLPALNNEIGKGWGDNGNVMCGRANHMWDPTGSLQSTIPCSGIDNWDAGGAFAEVAPLPTGIETYASLYLSITNTTRRAEFSWNAAANKVDLSWQTAWKQDSINMAKTIFDKINSKEGTIYRTDLFGAYKVWQDGLTYHPLGGAVLNKATDNYGRLHGYNGLYVIDGALIPGNTTVNPFVTITALAERNIDNILANDI
notes: as for B1

Key:
Test in all cases: peroxidase-coupled 4-aminoantipyrine/phenol H2O2 assay, OD500
Format in all cases: biochemical, Pimelobacter simplex
Conditions in all cases: 25 mM phosphate pH 7.5, isopropanol and Triton X-100, temperature not stated for kinetics
[1] = substrate: CC(C)CCC[C@@H](C)[C@H]1CC[C@H]2[C@@H]3CC=C4C[C@@H](O)CC[C@]4(C)[C@H]3CC[C@]12C
Description: (§1) peroxidase-coupled 4-aminoantipyrine/phenol H2O2 assay, OD500 on PsChO

[2] = substrate: CC[C@H](/C=C/[C@@H](C)[C@H]1CC[C@H]2[C@@H]3CC=C4C[C@@H](O)CC[C@]4(C)[C@H]3CC[C@]12C)C(C)C
Description: as §1

[3] = substrate: C[C@]12CC[C@H](O)CC1=CC[C@@H]1[C@@H]2CC[C@]2(C)C(=O)CC[C@@H]12
Description: as §1

[4] = substrate: [H][C@@]12CC=C3C[C@@H](O)CC[C@]3(C)[C@@]1([H])CC[C@@]1(C)[C@@]2([H])CC[C@]1([H])C(C)=O
Description: as §1

[5] = substrate: [H][C@@]12CC=C3C[C@@H](O)CC[C@]3(C)[C@@]1([H])CC[C@@]1(C)[C@@]2([H])CC[C@]1([H])[C@H](C)CC[C@@H](CC)C(C)C
Description: as §1

Row | Protein | Km [1] [µM] | kcat [1] [s⁻¹] | kcat/Km [1] [M⁻¹ s⁻¹] | Km [2] [µM] | kcat [2] [s⁻¹] | kcat/Km [2] [M⁻¹ s⁻¹] | Km [3] [µM] | kcat [3] [s⁻¹] | kcat/Km [3] [M⁻¹ s⁻¹] | Km [4] [µM] | kcat [4] [s⁻¹] | kcat/Km [4] [M⁻¹ s⁻¹] | Km [5] [µM] | kcat [5] [s⁻¹] | kcat/Km [5] [M⁻¹ s⁻¹]
1 | B1 | 178.31 ± 1.38 | 23 ± 0.29 | 130000 ± 500 | 528.84 ± 3.59 | 4.23 ± 0.19 | 8000 ± 200 | 318.81 ± 3.25 | 9.56 ± 0.34 | 30000 ± 500 | 228.42 ± 3.24 | 13.7 ± 0.31 | 60000 ± 600 | 220.76 ± 3.14 | 13.2 ± 0.36 | 60000 ± 700
2 | B2 | 204.85 ± 3.14 | 12.3 ± 0.32 | 60000 ± 300 | 789.61 ± 4.71 | 1.58 ± 0.07 | 2000 ± 100 | 341.21 ± 3.79 | 6.82 ± 0.14 | 20000 ± 400 | 294.55 ± 2.97 | 11.8 ± 0.34 | 40000 ± 500 | 328.61 ± 3.60 | 9.86 ± 0.35 | 30000 ± 500
3 | B3 | 154.83 ± 3.31 | 15.5 ± 0.3 | 100000 ± 400 | 384.12 ± 3.84 | 7.68 ± 0.27 | 20000 ± 200 | 273.52 ± 2.13 | 13.7 ± 0.2 | 50000 ± 600 | 190.61 ± 3.30 | 15.2 ± 0.22 | 80000 ± 400 | 178.42 ± 1.61 | 16.1 ± 0.33 | 90000 ± 800
